3 molecules from publication PMC11980582, “The human microbiome-derived antimicrobial lugdunin self-regulates its biosynthesis by a feed-forward mechanism” can be followed below.

The subject of data set [1] is T1, LugJ (Staphylococcus lugdunensis IVK28), ORF:22db99f4.
T1 sequence: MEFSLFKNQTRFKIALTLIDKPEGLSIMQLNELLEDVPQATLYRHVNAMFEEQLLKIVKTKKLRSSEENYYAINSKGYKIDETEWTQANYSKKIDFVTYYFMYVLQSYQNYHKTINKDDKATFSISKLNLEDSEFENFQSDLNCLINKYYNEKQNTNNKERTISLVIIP
The data set is described as follows: competition. The note with it: 10 mM Tris/HCl pH 7.4, 10 mM NaCl (LugJ) or 100 mM NaCl (LugR), 0.1 mg/mL BSA, 1 mM DTT, 1 mM EDTA, 10% glycerol, 30 min at 25 C, 20 ul; 5% native PAGE.

Data set [2] has the same test system. Description: EMSA. The note with it: 10 mM Tris/HCl pH 7.4, 10 mM NaCl (LugJ) or 100 mM NaCl (LugR), 0.1 mg/mL BSA, 1 mM DTT, 1 mM EDTA, 10% glycerol, 30 min at 25 C, 20 ul; 5% native PAGE. On the technique in general: Mobility shift assays separate free from complexed probe on a gel.
Data set [3] has as its target T2, LugR (Staphylococcus lugdunensis IVK28, UniProt A0A292DID1 1-196).
T2 sequence: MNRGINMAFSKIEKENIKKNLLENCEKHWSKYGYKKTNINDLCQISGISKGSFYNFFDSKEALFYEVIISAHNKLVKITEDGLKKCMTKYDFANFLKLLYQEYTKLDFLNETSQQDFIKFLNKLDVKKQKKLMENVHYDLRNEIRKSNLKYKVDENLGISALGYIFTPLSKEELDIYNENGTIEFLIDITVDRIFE
Description: competition; 2 uM LugR; 50 or 100 ng competitor vs PlugR; 10 mM Tris/HCl pH 7.4, 10 mM NaCl (LugJ) or 100 mM NaCl (LugR), 0.1 mg/mL BSA, 1 mM DTT, 1 mM EDTA, 10% glycerol, 30 min at 25 C, 20 ul; 5% native PAGE. The note with it: protein: recombinant; tags: 8xHis (N-terminal, pET-28a derived); chain copies: 2; label: none; blunt.

In the case of “ACATAACACCTCACTTTATACATAATAATTGATTTTTAAATAAATGTACAGTAACATTATCATTATCAATAATGATAATGGAGGGTGAAAATG (double strand) [cold PlugI]”, the binding entry in data set [1] is given as “binds”.

On to “ACATAACACCTCACTTTATACATAATAATTGATTTTTAAATAAATGTACAGTAACATTATCATTATCAATAATGATAATGGAGGGTGAAAATG (double strand) [PlugI promoter fragment]”, for which the binding entry in data set [2] was “binds”.

B1: PallugR native (dsDNA)
DNA 1: GATAAAAGTGACTAGAAAAATTTATTTGGTCATAAATGAATAG
DNA 2: CTATTCATTTATGACCAAATAAATTTTTCTAGTCACTTTTATC
Take B1: the binding result in data set [3] is on record as “binds”.
